Experimental data published in the supplement of paper PMC9732359.
± gives the uncertainty stated by the source.

Assay: protein stability index of a GFP-peptide fusion (yeast GPS) (PSI 1-4); higher = more stable; sorted into four equal gates, so the index is relative within each strain
Procedure, shortened: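 Sequencing reads from sorted gates were used to score each peptide. The library consisted of tiled 17-residue yeast protein peptides fused downstream of GFP on a Cherry-expressing plasmid, pooled and carried in yeast. Mid-log cultures in leucine-free medium were split into four equal gates by GFP/Cherry ratio, and each gate's plasmids were PCR-amplified and Illumina-sequenced. The protein stability index adds up, over all gates, the read frequency multiplied by the gate number.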

Sequence | protein stability index (doa10∆) | protein stability index (pdr5∆) | protein stability index (san1∆) | protein stability index (ubr1∆)
AQRLQISDYQQLESIYF [SWI1] | 2.38 ± 0.05 | 1.95 ± 0.027 | 2.58 ± 0.043 | 2.76 ± 0.046
SLKQYAGNLITTPEINN [SRP68] | 2.69 ± 0.073 | 2.88 ± 0.061 | 2.92 ± 0.076 | 2.31 ± 0.041
KHYLEDKLKVYKQAMNE [SNF5] | 3.19 ± 0.093 | 3.18 ± 0.12 | 3.1 ± 0.1 | 3.08 ± 0.067
SMPLEQLIPIILRQRGP [SRB4] | 2.05 ± 0.057 | 2.31 ± 0.058 | 2.32 ± 0.083 | 1.91 ± 0.055
PTLAGMAQRTLKNKYES [FAS2] | 2.76 ± 0.031 | 2.67 ± 0.027 | 2.63 ± 0.029 | 2.657 ± 0.02
ARYYRTVAVLPPNWKYE [RPS13] | 1.89 ± 0.044 | 2.1 ± 0.039 | 2.18 ± 0.051 | 1.92 ± 0.029
MVNTQQPIVTGTSVISM [PRE4] | 2.1 ± 0.26 | 2.69 ± 0.23 | 1.95 ± 0.14 | 1.96 ± 0.2
FLDSQRVWAEYATKRQE [PRP8] | 1.54 ± 0.078 | 2 ± 0.07 | 1.92 ± 0.097 | 2.07 ± 0.083
NRQTLMFTATMTPVIEK [PRP28] | 2.56 ± 0.061 | 2.62 ± 0.052 | 2.42 ± 0.052 | 2.44 ± 0.043
LTKAQKYLDQVLDHQRA [RPL17B] | 3 ± 0.096 | 2.96 ± 0.092 | 3.03 ± 0.079 | 2.98 ± 0.042
RDRTSGQKLLAIKYGYE [SRB4] | 2.9 ± 0.15 | 3.17 ± 0.11 | 3.11 ± 0.084 | 3.23 ± 0.096
GNIQISEYNFLEGSVSL [DIS3] | 2.74 ± 0.097 | 3.08 ± 0.091 | 3.05 ± 0.09 | 2.89 ± 0.072
ATHLPKDNVEHLVMRAI [RPN9] | 2.88 ± 0.089 | 3.09 ± 0.07 | 2.77 ± 0.067 | 2.9 ± 0.06
SETPLQKTVNLKNIMKV [RPN4] | 2.25 ± 0.08 | 2.6 ± 0.085 | 2.56 ± 0.11 | 2.48 ± 0.043
IRKQPDDIINNDEPSHK [SIR2] | 2.91 ± 0.065 | 2.95 ± 0.039 | 2.94 ± 0.04 | 2.83 ± 0.039
LLSDVNQNQRNVNETMS [SMC3] | 3.06 ± 0.12 | 2.89 ± 0.054 | 3.04 ± 0.062 | 3.01 ± 0.082
FQTIFSKQDLIHSLIPV [SIN4] | 1.93 ± 0.046 | 1.9 ± 0.064 | 1.66 ± 0.11 | 1.7 ± 0.05
RIYTNSFIDIMEVLGIE [RPO21] | 2.84 ± 0.059 | 2.94 ± 0.052 | 3.02 ± 0.045 | 2.81 ± 0.041
SVKSARTSTRGRGRGRG [SNF2] | 3.38 ± 0.065 | 3.35 ± 0.064 | 3.19 ± 0.046 | 3.32 ± 0.041
AAELQEKPLTPLKYTKL [SNF6] | 2.94 ± 0.13 | 3.02 ± 0.13 | 2.39 ± 0.17 | 2.78 ± 0.13
KIQFHIHFADVAHITTK [RGR1] | 2.88 ± 0.092 | 2.95 ± 0.087 | 2.83 ± 0.07 | 2.83 ± 0.058
IDEDIGNNVQENELVIT [RMP1] | 3.28 ± 0.17 | – | – | 3.39 ± 0.16
NEVIDKLKNENTDLKDI [PCI8] | 2.87 ± 0.066 | 3.04 ± 0.053 | 3.01 ± 0.048 | 3.13 ± 0.041
LEKTSRILNFFDKNTKT [YMR153W/NUP53] | 2.59 ± 0.08 | 3.09 ± 0.087 | 2.75 ± 0.089 | 2.7 ± 0.052
QLNEERSRYRREIDALK [YIL149C/MLP2] | 3.44 ± 0.092 | 3.25 ± 0.065 | 3.24 ± 0.045 | 3.25 ± 0.035
QDGVLLVALSNEPAARL [FAS2] | 1.89 ± 0.063 | 1.9 ± 0.06 | 2.68 ± 0.09 | 1.46 ± 0.071

Sequence | protein stability index (doa10∆) | protein stability index (pdr5∆) | protein stability index (san1∆) | protein stability index (ubr1∆)
IVLIKGISSAYIKSATL [SNU114] | 1.92 ± 0.087 | 2.05 ± 0.069 | 2.5 ± 0.07 | 2.52 ± 0.064
IEDKENSESTTQGGNVN [RPT5] | 3.59 ± 0.14 | 3.31 ± 0.14 | 3.46 ± 0.17 | 3.6 ± 0.11
DQWYCIDKLEDLSRIMD [ITC1] | 2.65 ± 0.26 | 2.64 ± 0.22 | – | –
PNDSNDEKVTILVDSLT [SWI1] | 2.67 ± 0.057 | 2.81 ± 0.065 | 3.01 ± 0.071 | 3.06 ± 0.042
FKGTDFVHSVKKFLRVR [SRB4] | 2.66 ± 0.077 | 2.64 ± 0.066 | 2.83 ± 0.058 | 2.87 ± 0.054
PLHLIFAQPVADIENST [SSN2] | 2.67 ± 0.078 | 2.51 ± 0.097 | 2.72 ± 0.13 | 2.67 ± 0.1
QLVPIRLEFDQDRDRFF [SNF5] | 3.14 ± 0.13 | 2.98 ± 0.16 | 2.98 ± 0.24 | 3.1 ± 0.078
DVLINELLDQVTLGREG [CDC53] | 3.06 ± 0.078 | 3.1 ± 0.073 | 3.06 ± 0.08 | 3.17 ± 0.066
NFEYDLSEYDAIQKKDN [YOR098C/NUP1] | 2.9 ± 0.2 | 3.23 ± 0.13 | 2.15 ± 0.26 | 3.23 ± 0.064
FGVPNSSKNETSKPVFS [YLR335W/NUP2] | 2.32 ± 0.035 | 2.97 ± 0.13 | 2.55 ± 0.13 | 3.15 ± 0.068
IHLKQKLSESLDTRKEL [SMC3] | – | 3.03 ± 0.24 | 3.4 ± 0.18 | 3.49 ± 0.15
LGYKAKQGFVIYRVRVR [RPL15A] | 2.22 ± 0.1 | 2.04 ± 0.11 | 2.06 ± 0.15 | 1.84 ± 0.11
ISYLQEVQCTSTPYLEI [PCI8] | 2.68 ± 0.16 | – | 1.7 ± 0.2 | 1.81 ± 0.22
TLGNLIRAELLNDRKVL [RPB11] | 3.06 ± 0.17 | 2.74 ± 0.25 | 3.08 ± 0.15 | 2.87 ± 0.23
GTGLFGQQTAQPQQSTI [YGR119C/NUP57] | 2.76 ± 0.063 | 3.13 ± 0.046 | 2.85 ± 0.051 | 3.19 ± 0.058
LADRDEFIQDSAARGLS [ECM29] | 1.55 ± 0.092 | 1.31 ± 0.06 | 1.2 ± 0.14 | 2.01 ± 0.064
APSANQGDEALSVDDIR [RTT102] | 3.15 ± 0.093 | 3.33 ± 0.1 | 2.98 ± 0.088 | –
LTKAQKYLEQVLDHQRA [RPL17A] | 2.69 ± 0.056 | 2.73 ± 0.063 | 2.47 ± 0.062 | 2.51 ± 0.039
STLEPTLRKELEQIQVQ [YIL149C/MLP2] | 2.75 ± 0.096 | 3.01 ± 0.088 | 2.89 ± 0.062 | 2.3 ± 0.048
HKVQTKLTRELEKKFPD [RPS7B] | 2.82 ± 0.16 | 3.07 ± 0.093 | 3.1 ± 0.058 | 3.07 ± 0.055
QDKDAIRKQPDDIINND [SIR2] | 2.48 ± 0.089 | 2.63 ± 0.049 | 2.82 ± 0.078 | 2.89 ± 0.061
RRYKLLTATPNSINKTT [POP1] | 2 ± 0.046 | 2.38 ± 0.049 | 2.4 ± 0.065 | 2.52 ± 0.042
NKEMETQRIMTNVIAFA [YLR018C/POM34] | 2.33 ± 0.1 | 2.46 ± 0.07 | 1.99 ± 0.15 | 2.46 ± 0.058
NENFRLVYDVKGRFAVH [RPS4A] | 3.41 ± 0.14 | 2.55 ± 0.17 | 3.32 ± 0.12 | 3.25 ± 0.13
AKKQNRPLPQWIRLRTN [RPL39] | 1.95 ± 0.063 | 2.69 ± 0.043 | 1.26 ± 0.082 | 2.44 ± 0.043
GISMFDYISGISVGLYD [SKI6] | 2.02 ± 0.092 | 2.02 ± 0.069 | 2.03 ± 0.069 | 2.1 ± 0.052
